Test results published in the DeepSol protein solubility set.

Assay: soluble on expression in E. coli; label from the status in PepcDB or PDB records

Row | Sequence | soluble on expression in E. coli
1 | MAHHHHHHMASVSSGVPLTAPSAQKLLQSVKYILLDVDGVVWSGPRVLPNIPQTLQYLRSLGKEIRFLTNNASVSRSSLAQLFRQRGIEGVKESEVYNSGYAAALRLRRICGAAEGNQERQEGNEPTSDKRLVRGNVFVIGEEGLHEELQRVLAPGYITYGMELHDAEKVGGYNSANAATAWKERILPAPLRQLKPPDGITDYGRGISLTDLSPVAVVVGLDLHFNMLKLAYASLCLHRGAGSNTDSEGDRIGGDRDRTPDKGLQKPVCFIATNEDPQIPIGEEGLLLPGAGGMVSALRTVSGRNPDAVCGKPHVDMARIMFEAEGITDARQCLMVGDRLTTDIAFGNAAGCRTLFVLSGAESMADIARAKSTGDSQLLPEFVAPSLASLMPDARDD | soluble
2 | MAHHHHHHMATCTLSVARFGRPSTFAHRRVRWLPPYDGNSTCLDWWLPTDAEAADTAADGGAAAIRVRALAVILPGLTGSSKEFYVRRMARQLLRAHMATCVLTSRGVADTHLERPQIFSALFAKDLRHIMQACMTREKVQECLLRRISPLQSSDHHKGAVPIIGVAFSLGGRILTNYVSEQGEAEAPSGFDAVYTITSPHNVSDGAAALRMLLSKLLYGSTLYKRLRAYYERHKNVLQNLPDIDKKLLMDGDSPLVKRLRTVQDFGEFITGPHVGFPGAEAYYVAASSFRRLHHSRMPQVCVVVANDPIYGPPQPAPRWLHLIDMHCGGLVYVEMPVGGHLGFLGCPWSEWTQAPNEMEHLVLRSLIHFIKSADTQAAEAKTNE | soluble
3 | MAHHHHHHMATLTEDEIAPSAIAAERERLQEATQHVAELERRLDALQRELEAACTRREQLLLSVQWRELMAAVNADEDVYAVAERMMDAFAAFRESLVEPENYLQEQREEVLKEDDIVPYSDTDDYADFSGVEAVVEELLAAVKEQLESHAAAPPSSFRQTKHSSLRGSFASDERPKHPDGESAEAHKVSADARRQALLKLLVITVLMGRVEQYCRFKSISDASNVPQSEAEEMRDGVASVWQWLFHEQPGVLTAEEGAEWKHIAGAFLGDSYTVAP | not soluble
4 | MAHHHHHHMCVRSMDPTKKGNENFPQRNVAIEEANFDSAFPAFNVHYNVEPKDWRHIELVEKEKQDFLLGIKKEIRLMQEDKNKINYVLNVQKQQLEELQFLLNRMKHFRRKSLIAEGEEQLKVDLLAMPRYLRTGTLFSVDTLGEENALRDFNELHNYSVDKSRLTTRGSFYHNLAEQWVG | not soluble
5 | MAHHHHHHMDATPHMHAKTIFMTHWDGLEKDSDARIIVVGATNRRFTIDDAIRRRLPLQLEVPPPDAKAREKILSILLAHDLEYNPKKDGLIRYVALKTAEYTGSDLSELCKAAALMPLREMESMKAGGASSAAPETVPPLTQQHFDKAMERVKASK | soluble
6 | MAHHHHHHMDDRDAELDIDEDGIFTCEEVNALTSAMWKAEGLTRVPRSRRHHRQAPPQQRTSAAAVDSLQPGPLAASTTTPGGGSVTDVTLQPLLNTTGEDGGHRSLGGDIRGLPSSFSNAPLFASATTTAAGLSSTSSPQPTSQALHHHHNDVDRQLGGNSNTSGRRMAGGGGSVGGEGSRSSSSVYEVLIQRVLAMDTASDIWSLGVLLYGMCADTADAQQQEEQQQHQASASTTTPTLNPPHATAAGSSPVRAHEGVAGTLPPAMPTCTCASRLAQRAFAALLGDLYDLAVTGVPSGDRGNNGWSCDGVDVEQLDEAADDHLRWPRSCALEEEVMQAIGEAGYTHVFASVLASMLSPVAARRPSAGDIVNQLRLVTTGAPATLASNIMRGGGGGLADADDEYSVARQSPPPRIQHSGGASDATSSVMLHEQTACMALRQR | not soluble
7 | MAHHHHHHMDHQDLKPVIWHKTEKKTKPKDIHEARKLGIDVEVEKKYFGGKNKSSKGNLIIENKAKIEQETENFKIDRVTPAFSRALQQARISKKLTQAQLARLVNESESVIKEYENGKAIPNNVIIQKLNKVLGVNLPSPKKK | soluble
8 | MAHHHHHHMDIIKNETKEMDMYNPSVSINFEKGILKNSCDTPKDTKLEKLKREYNILTSSYDYNSGNKKERRNIWKEKVKHNIASKNKKKMVKIKKEENNNELENKKGENLLMYVNDKNSNLNVYIDENDLFEETPNISSNTLLSYISNIFLRKKNIYEIKKCDFIKEVNTDESLKRNFIPPVDILYDDKKVLFLFFISGNLQNFHVTSNNNYLTISGEKIPYQVQDHTSYFSHEIKKGYFIRTYCFMKTFDKEKIYYEQNNGVIKIYVYICDDNNI | not soluble
9 | MAHHHHHHMDMQEQISDKGADDYDDTLVELKESELLKEDEKKKTKKKLYELNELHHLVNALPYIDSYDNELEQNAKRLVEEEMNLMHKNNEIKNYLETFPLPKITYLSNDNSIIQNELKRCEENRKMQKLNFDHYNIENDVLNNKNIEEWEKTLKKYEIILENSHNALINMELMNKYKEVMWSEHMKVFNHLDINLQNNIKTLKDDIDNINKKRKLHQLSYVNELSTLQNEQKEYKKKNNMVLNEIKKLMTENMLMKYKTNMI | not soluble
10 | MAHHHHHHMDPLAGLTTGSRNVIDDFFRWSRLSLDKFKRDLTVEASAFQAGNLWREQYTKAEVAQMLNGQLALMLGVVDTQMEGTTAASAELMRAVLREADRQRVTLDIDVKSVLNNAGGVNAMGEHGRQLMSGPTGRLAPLTVEEASGEAARQLAEANAEVKRLQAKLQQVTDAYTQVMRGRSSDTENLLSMQDAMNDKERLAAELARRCQGQDPSLAATVQELRAEVAEAKRELASRLHQSTQYQQVKHLLAQRNEQLKMMRERLAAYDPSFARYGDDINAEDD | soluble
11 | MAHHHHHHMDQFIRSRTDWKERVVFRLVWITASRWFGISGLHSQQFYTGAGRDPNLGLARGAEDGEGGSPPRLSVRQDTRAGGCVRHYKVMQDTSTQRKAHESYDCPLGASSGLLECHGAFHKTRCVEARCSNRGGVQFGPTRDPAVGEARRPVRPSPEYCLIFGEIHHNADPGVVASRIDVKRETAEGQ | not soluble
12 | MAHHHHHHMDREDDKKNKFPFTQNNCVVVRSKLDRKNISKMKLSDEQVTANEEITKSVLLKEVNMQDAYDQIGKNANDFSRIYNLFERELLNKSNIKNVYINGIKKNIIVDDGHMKTKVEKKSLKLIDEIHLTYKKRPIILIEKESSNHIINRNNVESFFVHNCLDNSGANRKGTHAASGGGEGAVTGPYNSIPIIYKMFNKKKSIKFSFIENDQISKLTETDWKCVIAVIIKSKESLKDILNEYPFEIPTALFQPFKSFFFMFNDVIIPSDLLTGGNVDIIRLSRDKRKEDYLAVNKFWTNIEKFILQRRDKSCYTRKKKF | not soluble
13 | MAHHHHHHMECGYSNEGKFHQVVLTIKEKIEKHDLSKWKDIVKPEEGPKYDEYFERLLREGNQEKDKNGKDTEGKDTHEKNTHDEGVHGKDDLSAEQVEKTPSHEYQQTEDEENPKKFQLNKEFFDKINNKEKFYFLLNIKEMMETSWLLAQKRLEGIKVEEKSKSVNVQDLLNYSQKIADTTCAPPECDNINDRIMHQEYYPNYHFLNFVNVEEIHLSKLFQLQKYSTVCFPPIITIQEGKDNMLVLHISCSTPHATIYYKVNDETNEQIYNTDEKPKIRKRKKINVYAWSVKNGHIKSRISCISKSYKVEEDDSFSLSDNFPNKDQGEQPSGFSKTGTECNAPGSKPSQITNVFKNLGFLLSRKKEKTEESSSNGDSSSEA | not soluble
14 | MAHHHHHHMEENNQVEKNKTNQLCFVKMLVNNLVAGSVIGKNGSIITSIENKTGCSLKLSPTNSYFPNTQERVLVLCGKQEQINNALLIILDKIRQITVQSFQDKQNMNTVPKYTCRIVIPKSAASAIIGKGGQQIKQLQDSTGAKIQISSREDGLNERIISIIGPFESISDTAIKVTNSIQNDPNLKDLLNVIYNKDTNMNGRSSLSQNFVNQVPLNGYVVPQQYGVFQHEQYMDVNMMNSLMRHSRDLFNLPCEISIQI | not soluble
15 | MAHHHHHHMEGARGSTLQVCGERHTMSLSLATALYADATRLYRLGDLHHARGAAEEALLSLSHSPHSDISDHTNHRHGDAHHEEAADSVSVGCEGSQAQQRQRHRLFGNTLLLLSSIYMAVQDYAEAERLLVTCDGYWRERLTSTHTRLSSVGTSAEVECACCSELDEGLAGVAYNRAVLRLEQLRRTPSFPASRDDGELWVAPPADLCGTDARLTYSLIPLSSTAASSGTPETLLASVMALLLDAQDRLAHTLGPPRGLLADVLHTIGVCHYEAADYIAALQAWQRSMAIRVHLQALRRRSDKNAAQRALHGGGGGECGDGTEELKLALTMEHVAQVYRLLEGRSVEALKLLDTVAATRRRYLGPTDPLCVRTLVLKGVLAAELGHTQLARALLERCSAIGGDASPETPPPSSSAYAVQEVEQ | soluble
16 | MAHHHHHHMEHVRHLLDVIMGRATLDPGVARVVSVFFNQKSSGFSPQELMQFLVTCAFHVKGMTPLEAARFCFFALRRDMEHAIARDDVIFMLEHSLIEHTIEMPEMELRRRVVDIFGDTTYVIFDDFVRYFIHNYAMWYAFGVPVTVSGERSGRGGDVAPQLNPTLTLLKADGEPNAKARAPTAATTVSTSGAAPVSASTSTTAATPAAAITTATTQKTVPHDESVWRTFIARVQHSNKAFSVTAHVNDTIFDVMVMVQNSTGIRAACQEWRAGNVALDPKCRLGSTELGLGGNEVAAPEVIIIARDEAVRLVMVYKEKGFRWEVRLPSSEKVLKLRALVQHKTMIPLTRCVLRAHGSCLMDRHPLAHYNLQDGDVVTITQE | not soluble
17 | MAHHHHHHMEKVITMREIITNTRKIKLHENFLEDCNLKDIFYNGLETVNCGYNDYVNMKTWLFVLSEKMFRTDYEELAYVACDALKVLLCNSKFLNVIIFKLLRKKLEKEILKIMGICCLTVASRMQQINESTCFKVILELSNLKDKLNEFNIRQIEMDVFVTLAHSGFCFEKIITPVNELNQIMKFLETYENFFDNNFNTFKSSSNLMLKIIYCMVPVFNMNIYNYSIVNYALRLFIQDNDKYEFIFEKLKQNYQDKEIIHISNFQNHMHNIINAFKNTSIFSAKDSILNNQLDVQLFEEINKKIEAYYEQKHKT | not soluble
18 | MAHHHHHHMERTNLGHGAVGSLAQLCDELRKSYAAAKEIEQRDTTLTKSETANTLKETSNLFALGMEKLISSDGNVVEVKDAIALAEDAEREVAALRAEKARLQSTEDGHRSKLSATGSDAEVEAFVAYAKELSELHDHLFLARVVFKGVLTKRLEDIRDDRLSQQDKRFTDPKSWDVKKGVLERMLQSLRTKTAQLQLSAKTYLDEDEALFLEVMNLATEAGDHVRRGDAMREARDEKLKVFYAECAKLTGWCRQQLTNLEAMQEPDHVQEYCATLADNYPTMSNNFAVLFNSVQEYVQASLIPVHKALLEAEEVWLYLQVSTLERLSKTLFEIHPQSPLDVEVEKYSSYPEHAAKFLQDLERYLAAQHRQQDEVAELDSVHKECQEVLHTLSGQFAELPSEVHAFAQRAQALRAGYQCFREALLQRLTYVSPAASTVVESKRRQEEFENCVRELKSWAAEASHGESWRDIYSKIVEIKQMIKSEQASLEMKRERAVASGQSR | not soluble
